Test results from patent publication US20170247463A1.

How the values were obtained:
hFcγRIIa131H = test: -
hFcγRI = test: -; range printed as 0.12~0.28
hFcγRIIIa158V = test: -; range printed as 0.20~0.28

Kd (hFcγRIIa131H): 850 nM
Kd (hFcγRI): 0.12 nM
Kd (hFcγRIIIa158V): 200 nM
Substance: IgG 1
